# Substitutions are numbered along the chain they refer to. Read-outs that look alike come from different tables or passages of the source.
# B1: 93-VH-6 (VHH)
# VHH: EVQLVESGGGLVQPGGSLRLSCAASGFTFTFRHYVMGWFRQAPGKEREFVAAISWSGSGSYYADSVKGRFTISRDNSKNTVYLQMNSLRAEDTAVYYCAADMTTRMSQASREYDYWGQGTLVTVSS
# B2: R21448513 (VHH)
# VHH: B1 VHH with R32Y, A52D, R105E
# notes: ELISA detection with anti-human IgG Fc implies a human Fc part that is not described
# B3: R21448518 (VHH)
# VHH: B1 VHH with R105E, R111D
# notes: as for B2
# B4: R21448519 (VHH)
# VHH: B1 VHH with A109D, R111D
# notes: as for B2
# B5: R21448515 (VHH)
# VHH: B1 VHH with R32Y, A52D, R111D
# notes: as for B2
# B6: R21448509 (VHH)
# VHH: B1 VHH with R32Y, R111D
# notes: as for B2
# B7: R21448508 (VHH)
# VHH: B1 VHH with R32Y, A109D
# notes: as for B2
# B8: R21448516 (VHH)
# VHH: B1 VHH with R32Y, A52D, R105E, A109D, R111D
# notes: as for B2
# B9: R21448504 (VHH)
# VHH: B1 VHH with R105E
# notes: as for B2
# B10: R21448505 (VHH)
# VHH: B1 VHH with A109D
# notes: as for B2
# B11: R21448502 (VHH)
# VHH: B1 VHH with R32Y
# notes: as for B2
# B12: R21448517 (VHH)
# VHH: B1 VHH with R105E, A109D
# notes: as for B2
# B13: R21448506 (VHH)
# VHH: B1 VHH with R111D
# notes: as for B2
# B14: R21448507 (VHH)
# VHH: B1 VHH with R32Y, R105E
# notes: as for B2
# B15: R21448514 (VHH)
# VHH: B1 VHH with R32Y, A52D, A109D
# notes: as for B2
# B16: 112-VH47 (VHH)
# VHH: EVQLVESGGGLVQPGGSLRLSCAASGFTFSSGTQFSDSKIDWYRQAPGKGLVWVAGIFSTGSTIYEDSVKGRFTISRDNAKNTGYLQMNSLRAEDTAVYYCRVIGRGILAWGQGTLVTVSS
# B17: R21560102 (VHH)
# VHH: B16 VHH with S59Q
# notes: as for B2
# B18: R21560103 (VHH)
# VHH: B16 VHH with R106I
# notes: as for B2
# B19: R21560106 (VHH)
# VHH: B16 VHH with I40A, I108T
# notes: as for B2
# Tests used:
# [1] = molecular target: T1, human PD-L1 expressed on cells (Raji cells overexpressing human PD-L1; CHO cells) (human, UniProt Q9NZQ7 19-290); experiment: cell-based or functional assay
# [2] = molecular target: T1, human PD-L1 expressed on cells (Raji …); experiment: flow cytometry, PD-L1 expressed on CHO or Raji cells
# [3] = molecular target: T2, human His-PD-L1 (human, UniProt Q9NZQ7 19-238, limits assumed); experiment: ELISA: plate coated with human His-PD-L1, antibody titrated, goat anti-human IgG Fc HRP, OD450
# T2 construct: also called human PD-L1
# Description: Briefly, 100 μl anti-PD-L1 antibody at different concentrations was incubated in each well of 96 well plate pre-coated with human His-PD-L1, and then goat anti-human IgG Fc HRP was added and analyzed by coloring reaction of HRP with its substrate.
# [4] = molecular target: T2, human His-PD-L1; experiment: ELISA blocking assay: antibody titrated together with Biotin-PD-1 on coated human His-PD-L1, Streptavidin-HRP, OD450
# [5] = molecular target: T2, human His-PD-L1; experiment: as above; remark: listed apart in the source
# [6] = molecular target: T1, human PD-L1 expressed on cells (Raji …); experiment: flow cytometry on CHOK1-PDL1 cells (cell binding assay), GMFI
# [7] = molecular target: T2, human His-PD-L1; experiment: ELISA blocking assay: antibody titrated together with Biotin-PD-1 on coated human His-PD-L1, Streptavidin-HRP, OD450; remark: listed apart in the source
# [8] = molecular target: T1, human PD-L1 expressed on cells (Raji …); experiment: flow cytometry on Raji-PDL1 cells (cell binding assay), GMFI
# Description: Binding capability of the anti-PD-L1 antibody of the present application was further evaluated by using Raji cells overexpressing human PD-L1. Briefly, 50 μl Raji cells overexpressing human PD-L1 were seeded into 96 well plate at a concentration of 2*10⁵ cells/well. […] Then the cells were washed twice by FACS buffer and supplemented with 100 μl PE-anti-hu IgG, followed by incubation on ice for 1 hour. After incubation, the cells in each well were collected and resuspended with 65 μl FACS buffer for analysis by flow cytometry.
# [9] = molecular target: T1, human PD-L1 expressed on cells (Raji …); experiment: cell-based or functional assay; remark: listed apart in the source
# [10] = molecular target: T1, human PD-L1 expressed on cells (Raji …); experiment: flow cytometry on CHOK1-PDL1 cells (cell binding assay), GMFI; remark: listed apart in the source
# [11] = molecular target: T2, human His-PD-L1; experiment: ELISA blocking assay: antibody titrated together with Biotin-PD-1 on coated human His-PD-L1, Streptavidin-HRP, OD450; remark: listed apart in the source
# T1 sequence (Q9NZQ7 19-290): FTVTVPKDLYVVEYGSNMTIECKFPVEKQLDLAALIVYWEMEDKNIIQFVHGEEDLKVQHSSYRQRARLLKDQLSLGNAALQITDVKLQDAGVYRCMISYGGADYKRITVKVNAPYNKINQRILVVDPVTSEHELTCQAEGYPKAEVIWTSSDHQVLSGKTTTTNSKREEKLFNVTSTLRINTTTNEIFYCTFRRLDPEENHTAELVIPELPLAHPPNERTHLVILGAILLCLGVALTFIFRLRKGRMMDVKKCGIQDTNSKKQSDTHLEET
# T2 sequence (Q9NZQ7 19-238 limits assumed): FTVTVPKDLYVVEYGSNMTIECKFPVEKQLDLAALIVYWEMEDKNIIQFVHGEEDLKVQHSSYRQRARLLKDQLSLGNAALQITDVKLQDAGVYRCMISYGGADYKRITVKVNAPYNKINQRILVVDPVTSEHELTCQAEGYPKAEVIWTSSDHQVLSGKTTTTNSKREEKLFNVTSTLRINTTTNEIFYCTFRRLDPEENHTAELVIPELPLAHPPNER
binder,measurement,setting,value
B1,"EC50 (read off the curve), NFAT-luciferase signal (RLU), CHO-PDL-1 aAPC and Jurkat-PD-1-NFAT",[1],~0.7 nM
B2,binding result,[2],binds
same,binding result,[3],binds
B3,binding result,[2],binds
same,binding result,[3],binds
B4,IC50 (read off the curve),[4],~0.8 nM
B5,IC50 (read off the curve),[4],~0.8 nM
B6,binding result,[5],binds
same,binding result,[6],binds
B7,binding result,[2],binds
same,binding result,[3],binds
B8,IC50 (read off the curve),[7],~0.7 nM
same,EC50 (read off the curve),[8],~0.4 nM
B9,binding result,[2],binds
same,binding result,[3],binds
B10,EC50 (read off the curve),[6],~4 nM
B11,binding result,[2],binds
same,binding result,[3],binds
B12,binding result,[2],binds
same,binding result,[3],binds
B13,binding result,[3],binds
same,binding result,[6],binds
B14,binding result,[2],binds
same,binding result,[3],binds
B15,IC50 (read off the curve),[4],~0.6 nM
B16,"EC50 (read off the curve), NFAT-luciferase signal (RLU), CHO-PDL-1 aAPC and Jurkat-PD-1-NFAT",[1],~0.6 nM
B17,"EC50 (read off the curve), NFAT-luciferase signal (RLU), CHO-PDL-1 aAPC and Jurkat-PD-1-NFAT",[9],~0.5 nM
same,EC50 (read off the curve),[10],~3 nM
same,IC50 (read off the curve),[11],~0.8 nM
B18,binding result,[2],binds
same,binding result,[3],binds
B19,binding result,[2],binds
same,binding result,[3],binds

# Source: patent US20260184793A1 (TJ BIOPHARMA SHANGHAI, published 2026)
